Source: patent publication US20240124607A1 (Merck Sharp & Dohme, published 2024)
Numbering of substitutions follows the chain as printed.

T1: mouse NKG2D-Fc (mouse, UniProt O54709 90-232)
T1 construct: extracellular domain; also called Mouse NKG2D-Fc-biotin
T1 sequence (looked up): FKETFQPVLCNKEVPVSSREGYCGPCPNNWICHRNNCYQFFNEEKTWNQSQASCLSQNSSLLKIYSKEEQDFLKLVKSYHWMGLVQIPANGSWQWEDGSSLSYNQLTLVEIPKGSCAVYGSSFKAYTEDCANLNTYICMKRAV

T2: human NKG2D-Fc (human, UniProt P26718 73-216)
T2 construct: extracellular domain; also called recombinant human NKG2D-Fc; NKG2D-Fc-biotin
T2 sequence (looked up): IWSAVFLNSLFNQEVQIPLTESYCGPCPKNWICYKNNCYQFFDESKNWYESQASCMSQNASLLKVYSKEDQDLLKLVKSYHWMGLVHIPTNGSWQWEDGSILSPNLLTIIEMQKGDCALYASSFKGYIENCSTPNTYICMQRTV

T3: cynomolgus NKG2D-Fc (cynomolgus monkey, UniProt P61252 73-216)
T3 construct: extracellular domain
T3 sequence (looked up): T2 sequence (looked up) with D43N, T133I

T4: human CEACAM5 on cells (human, UniProt P06731 35-685)
T4 construct: tumour cell lines with endogenous CEACAM5, or B16F10 engineered to express hCEACAM5; also called CEACAM5 on MKN-45, HPAF-II, SK-CO-1, LoVo, BxPC-3, Kato-III, LS-174T, ZR-75-30; hCEACAM5-B16F10
T4 sequence: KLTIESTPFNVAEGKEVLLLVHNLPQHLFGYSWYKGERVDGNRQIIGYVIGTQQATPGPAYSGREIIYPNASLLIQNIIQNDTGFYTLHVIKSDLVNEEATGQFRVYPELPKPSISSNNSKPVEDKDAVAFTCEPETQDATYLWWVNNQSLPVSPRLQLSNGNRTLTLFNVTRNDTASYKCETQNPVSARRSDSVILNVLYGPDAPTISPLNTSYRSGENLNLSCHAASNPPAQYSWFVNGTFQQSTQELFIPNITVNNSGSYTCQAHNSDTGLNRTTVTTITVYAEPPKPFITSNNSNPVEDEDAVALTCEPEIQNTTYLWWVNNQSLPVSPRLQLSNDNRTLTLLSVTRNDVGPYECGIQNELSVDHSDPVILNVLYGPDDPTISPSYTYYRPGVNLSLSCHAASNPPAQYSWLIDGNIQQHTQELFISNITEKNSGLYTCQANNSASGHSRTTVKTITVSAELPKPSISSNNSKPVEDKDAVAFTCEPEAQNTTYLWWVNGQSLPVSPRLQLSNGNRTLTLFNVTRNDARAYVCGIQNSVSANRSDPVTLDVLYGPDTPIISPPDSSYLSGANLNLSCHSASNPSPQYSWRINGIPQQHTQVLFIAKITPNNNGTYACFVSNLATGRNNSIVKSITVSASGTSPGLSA

B1: ADI-27743 (antibody, V domains shown)
VH: QVQLQQWGAGLLKPSETLSLTCAVYGGSFSGYYWSWIRQPPGKGLEWIGEIDHSGSTNYNPSLKSRVTISVDTSKNQFSLKLSSVTAADTAVYYCARARGPWSFDPWGQGTLVTVSS
VL: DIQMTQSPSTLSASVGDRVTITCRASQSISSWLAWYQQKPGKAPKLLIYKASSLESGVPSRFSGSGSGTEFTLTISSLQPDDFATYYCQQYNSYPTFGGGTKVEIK
notes: named as a single clone only on the drawing sheets
B2: AB0509 (antibody, V domains shown)
VH: QVQLVQSGGGLVQPGGSLRLSCAASGFTFTSYAMSWVRQAPGKGLEWVSAISGTGDSTFYADSVKGRFTFSRDNSKNTLYLQMNSLRAEDTAVYYCAKDLGWLQYGLFDYWGQGTLVTVSS
VL: DIQLTQSPATLSVSPGERATLSCRASQSVSSSYLAWYQQKPGQAPRLLIYGASSRATGIPDRFSGSGSGTDFTLTISRLEPEDFAVYYCQQYNNWPLTFGGGTKVEIK
notes: the scFv entries carry the stabilising cysteines, which the mAb may lack; also called mAb corresponding to AB0411

What was measured:
mouse NKG2D-Fc [1] = biological target: T1, mouse NKG2D-Fc; assay: ELISA on plate-adsorbed recombinant mouse NKG2D-Fc, anti-human kappa-HRP, OD 450 nm
Text: (§1) The nucleic acid sequences of human, mouse or cynomolgus NKG2D ectodomains were fused with nucleic acid sequences encoding human IgG1 Fc domains and introduced into mammalian cells to be expressed. After purification, NKG2D-Fc fusion proteins were adsorbed to wells of microplates. After blocking the wells with bovine serum albumin to prevent non-specific binding, NKG2D-binding domains were titrated and added to the wells pre-adsorbed with NKG2D-Fc fusion proteins. Primary antibody binding was detected using a secondary antibody which was conjugated to horseradish peroxidase and specifically recognizes a human kappa light chain to avoid Fc cross-reactivity. 3,3′,5,5′-Tetramethylbenzidine (TMB), a substrate for horseradish peroxidase, was added to the wells to visualize the binding signal, whose absorbance was measured at 450 nm and corrected at […]. An NKG2D-binding domain clone, an isotype control or a positive control (comprising heavy chain and light chain variable domains selected from the group consisting of: SEQ ID NOs: 526-529, or anti-mouse NKG2D clones MI-6 and CX-5 available at eBioscience) was added to each well.

human NKG2D-Fc [2] = biological target: T2, human NKG2D-Fc; assay: ELISA on plate-adsorbed recombinant human NKG2D-Fc, anti-human kappa-HRP, OD 450 nm
Text: as §1

human NKG2D-Fc [3] = biological target: T2, human NKG2D-Fc; assay: competition ELISA: human NKG2D-Fc-biotin binding to plate-adsorbed MICA-Fc is blocked
Procedure: Recombinant human MICA-Fc proteins were adsorbed to wells of a microplate, and the wells were blocked with bovine serum albumin to reduce non-specific binding. NKG2D-Fc-biotin was added to wells followed by NKG2D-binding domains. After incubation and washing, NKG2D-Fc-biotin that remained bound to MICA-Fc coated wells was detected using streptavidin-HRP and TMB substrate. Absorbance was measured at 450 nm and corrected at […]. After subtracting background, specific binding of NKG2D-binding domains to the NKG2D-Fc proteins was calculated from the percentage of NKG2D-Fc-biotin that was blocked from binding to the MICA-Fc coated wells.

cynomolgus NKG2D-Fc = biological target: T3, cynomolgus NKG2D-Fc; assay: ELISA on plate-adsorbed recombinant cynomolgus NKG2D-Fc, anti-human kappa-HRP, OD 450 nm
Text: as §1

human NKG2D-Fc [4] = biological target: T2, human NKG2D-Fc; assay: competition ELISA on plate-adsorbed human NKG2D-Fc; blocked ligand ULBP-6-His-biotin
Procedure: Recombinant human NKG2D-Fc proteins were adsorbed to wells of a microplate, and the wells were blocked with bovine serum albumin to reduce non-specific binding. A saturating concentration of ULBP-6-His-biotin was added to the wells, followed by addition of the NKG2D-binding domain clones. After a 2-hour incubation, wells were washed and ULBP-6-His-biotin that remained bound to the NKG2D-Fc coated wells was detected by streptavidin-conjugated to horseradish peroxidase and TMB substrate. Absorbance was measured at 450 nm and corrected at […]. After subtracting background, specific binding of NKG2D-binding domains to the NKG2D-Fc proteins was calculated from the percentage of ULBP-6-His-biotin that was blocked from binding to the NKG2D-Fc proteins in wells.

mouse NKG2D-Fc [5] = biological target: T1, mouse NKG2D-Fc; assay: competition ELISA: mouse NKG2D-Fc-biotin binding to plate-adsorbed Rae-1delta-Fc is blocked
Procedure: Recombinant mouse Rae-1delta-Fc (purchased from R&D Systems) was adsorbed to wells of a microplate, and the wells were blocked with bovine serum albumin to reduce non-specific binding. Mouse NKG2D-Fc-biotin was added to the wells followed by NKG2D-binding domains. After incubation and washing, NKG2D-Fc-biotin that remained bound to Rae-1delta-Fc coated wells was detected using streptavidin-HRP and TMB substrate. Absorbance was measured at 450 nm and corrected at […]. After subtracting background, specific binding of NKG2D-binding domains to the NKG2D-Fc proteins was calculated from the percentage of NKG2D-Fc-biotin that was blocked from binding to the Rae-1delta-Fc coated wells.

human CEACAM5 on cells [6] = biological target: T4, human CEACAM5 on cells; assay: flow cytometry, Kato-III cells
human CEACAM5 on cells [7] = biological target: T4, human CEACAM5 on cells; assay: flow cytometry, MKN-45 cells; MKN-45 cells
human CEACAM5 on cells [8] = biological target: T4, human CEACAM5 on cells; assay: flow cytometry, MKN-45 cells
human CEACAM5 on cells [9] = biological target: T4, human CEACAM5 on cells; assay: flow cytometry, SK-CO-1 cells
human CEACAM5 on cells [10] = biological target: T4, human CEACAM5 on cells; assay: flow cytometry, BxPC-3 cells
human CEACAM5 on cells [11] = biological target: T4, human CEACAM5 on cells; assay: flow cytometry, LoVo cells

Binder | EC50 (read off the curve) (mouse NKG2D-Fc [1]) [nM] | EC50 (read off the curve) (human NKG2D-Fc [2]) [nM] | IC50 (read off the curve) (human NKG2D-Fc [3]) [nM] | EC50 (read off the curve) (cynomolgus NKG2D-Fc) [nM] | IC50 (read off the curve) (human NKG2D-Fc [4]) [nM] | IC50 (read off the curve) (mouse NKG2D-Fc [5]) [nM] | EC50 (human CEACAM5 on cells [6]) [nM] | Max FOB (human CEACAM5 on cells [6]) [fold over background] | EC50 (human CEACAM5 on cells [7]) [nM] | Max FOB (human CEACAM5 on cells [8]) [fold over background] | EC50 (human CEACAM5 on cells [9]) [nM] | Max FOB (human CEACAM5 on cells [9]) [fold over background] | EC50 (human CEACAM5 on cells [10]) [nM] | Max FOB (human CEACAM5 on cells [10]) [fold over background] | EC50 (human CEACAM5 on cells [11]) [nM] | Max FOB (human CEACAM5 on cells [11]) [fold over background]
B1 | ~0.2 | ~0.4 | ~20 | ~0.3 | ~3 | ~20 |  |  |  |  |  |  |  |  |  | 
B2 |  |  |  |  |  |  | 1.17 | 5 | < 9.05 | 107 | 8.67 | 37 | 4.28 | 19 | 3.25 | 19
